Reference: patent US20150374794A1 (Novo Nordisk, published 2015)
Numbered stars: 1 amine (or outer) side, 2 acyl side, 3 side chain; on linkers, the order of the positions; unused ones are H or OH. Square brackets hold non-standard residues; d marks the D form. Side chains are listed from the residue outwards. Ends that are not written are not given here. * marks the point of attachment. C18 diacid = O=C(O)CCCCCCCCCCCCCCCCC(=O)*; γGlu = O=C(O)[C@H](CCC(=O)[*:2])N[*:1]; Ac4c = NC1(C(=O)O)CCC1; AEEA = NCCOCCOCC(=O)O; Aib = CC(C)(N)C(=O)O

Key:
[1] = biological target: T1, human GLP-1 receptor (human, UniProt P43220 24-463); experiment: cell-based or functional assay
[2] = biological target: T2, human glucagon receptor (human, UniProt P47871 26-477); experiment: cell-based or functional assay
T2 sequence (P47871 26-477): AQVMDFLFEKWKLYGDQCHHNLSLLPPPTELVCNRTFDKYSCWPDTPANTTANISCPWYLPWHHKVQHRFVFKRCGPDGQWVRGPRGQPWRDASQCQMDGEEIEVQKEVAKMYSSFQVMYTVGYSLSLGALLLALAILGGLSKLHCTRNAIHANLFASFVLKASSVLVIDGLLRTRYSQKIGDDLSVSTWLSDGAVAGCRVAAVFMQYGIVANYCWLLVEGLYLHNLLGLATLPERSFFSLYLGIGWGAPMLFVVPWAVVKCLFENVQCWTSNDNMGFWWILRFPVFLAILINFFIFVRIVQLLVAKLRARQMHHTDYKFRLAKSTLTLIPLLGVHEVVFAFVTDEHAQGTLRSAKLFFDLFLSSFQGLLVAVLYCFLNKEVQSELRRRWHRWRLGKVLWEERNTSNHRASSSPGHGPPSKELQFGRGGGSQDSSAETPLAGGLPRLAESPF

[3] = biological target: T2, human glucagon receptor; experiment: displacement of 125I-glucagon, membranes with human glucagon receptor, SPA
Protocol: (§1) The receptor binding of each compound to the human glucagon receptor was measured in a displacement binding assay. […] Each derivative was added in a series of concentrations to isolated membranes containing the human glucagon receptor and displacement of the labelled ligand is monitored. The receptor binding was reported as the concentration at which half of the labelled ligand is displaced from the receptor, the IC₅₀ value.

[4] = biological target: T1, human GLP-1 receptor; experiment: displacement of 125I-GLP-1(7-36)NH2, membranes with human GLP-1R, SPA
Protocol: as §1, with “human GLP-1” for “human glucagon”, “ligand was” for “ligand is”

B1: N^ε28-[2-[2-[2-[[2-[2-[2-[[(4S)-4-carboxy-4-[[(4S)-4-carboxy-4-[[(4S)-4-carboxy-4-(17-carboxyheptadecanoylamino)butanoyl]amino]butanoyl]amino]butanoyl]amino]eth … (peptide)
peptide: H[Ac4c]QGTFTSDLSKYLESRRAQDFVQWLLK([AEEA-AEEA-γGlu-γGlu-γGlu-C18 diacid])T-NH2
modifications: N-terminus assumed
SMILES: CC(C)C[C@H](NC(=O)[C@H](Cc1ccc(O)cc1)NC(=O)[C@H](CCCCN)NC(=O)[C@H](CO)NC(=O)[C@H](CC(C)C)NC(=O)[C@H](CC(=O)O)NC(=O)[C@H](CO)NC(=O)[C@@H](NC(=O)[C@H](Cc1ccccc1)NC(=O)[C@@H](NC(=O)CNC(=O)[C@H](CCC(N)=O)NC(=O)C1(NC(=O)[C@@H](N)Cc2c[nH]cn2)CCC1)[C@@H](C)O)[C@@H](C)O)C(=O)N[C@@H](CCC(=O)O)C(=O)N[C@@H](CO)C(=O)N[C@@H](CCCNC(=N)N)C(=O)N[C@@H](CCCNC(=N)N)C(=O)N[C@@H](C)C(=O)N[C@@H](CCC(N)=O)C(=O)N[C@@H](CC(=O)O)C(=O)N[C@@H](Cc1ccccc1)C(=O)N[C@H](C(=O)N[C@@H](CCC(N)=O)C(=O)N[C@@H](Cc1c[nH]c2ccccc12)C(=O)N[C@@H](CC(C)C)C(=O)N[C@@H](CC(C)C)C(=O)N[C@@H](CCCCNC(=O)COCCOCCNC(=O)COCCOCCNC(=O)CC[C@H](NC(=O)CC[C@H](NC(=O)CC[C@H](NC(=O)CCCCCCCCCCCCCCCCC(=O)O)C(=O)O)C(=O)O)C(=O)O)C(=O)N[C@H](C(N)=O)[C@@H](C)O)C(C)C
EC50 GLP-1R, CRE luciferase reporter gene assay in BHK cells [1]: 0.007 nM
EC50 GlucR, CRE luciferase reporter gene assay in BHK cells [2]: 0.024 nM
IC50 [3]: 7.7 nM
IC50 [4]: 0.8 nM

B2: N^ε28-[2-[2-[2-[[2-[2-[2-[[(4S)-4-carboxy-4-[[(4S)-4-carboxy-4-[[(4S)-4-carboxy-4-(17-carboxyheptadecanoylamino)butanoyl]amino]butanoyl]amino]butanoyl]amino]eth … (peptide)
peptide: H[Aib]QGTFTSDLSRYLDARRAQDFVQWLLK([AEEA-AEEA-γGlu-γGlu-γGlu-C18 diacid])T-NH2
modifications: N-terminus assumed
SMILES: CC(C)C[C@H](NC(=O)[C@H](Cc1ccc(O)cc1)NC(=O)[C@H](CCCNC(=N)N)NC(=O)[C@H](CO)NC(=O)[C@H](CC(C)C)NC(=O)[C@H](CC(=O)O)NC(=O)[C@H](CO)NC(=O)[C@@H](NC(=O)[C@H](Cc1ccccc1)NC(=O)[C@@H](NC(=O)CNC(=O)[C@H](CCC(N)=O)NC(=O)C(C)(C)NC(=O)[C@@H](N)Cc1c[nH]cn1)[C@@H](C)O)[C@@H](C)O)C(=O)N[C@@H](CC(=O)O)C(=O)N[C@@H](C)C(=O)N[C@@H](CCCNC(=N)N)C(=O)N[C@@H](CCCNC(=N)N)C(=O)N[C@@H](C)C(=O)N[C@@H](CCC(N)=O)C(=O)N[C@@H](CC(=O)O)C(=O)N[C@@H](Cc1ccccc1)C(=O)N[C@H](C(=O)N[C@@H](CCC(N)=O)C(=O)N[C@@H](Cc1c[nH]c2ccccc12)C(=O)N[C@@H](CC(C)C)C(=O)N[C@@H](CC(C)C)C(=O)N[C@@H](CCCCNC(=O)COCCOCCNC(=O)COCCOCCNC(=O)CC[C@H](NC(=O)CC[C@H](NC(=O)CC[C@H](NC(=O)CCCCCCCCCCCCCCCCC(=O)O)C(=O)O)C(=O)O)C(=O)O)C(=O)N[C@H](C(N)=O)[C@@H](C)O)C(C)C
EC50 GLP-1R, CRE luciferase reporter gene assay in BHK cells [1]: 0.003 nM
EC50 GlucR, CRE luciferase reporter gene assay in BHK cells [2]: 0.02 nM
IC50 [3]: 5.5 nM
IC50 [4]: 0.9 nM
